Laboratory results published in patent US20210302413A1 (Johns Hopkins, published 2021).

Biological target: T1, endogenous human zinc transporter 8 (ZnT8) in EndoC-βH1 cells (human, UniProt Q8IWU4 1-369)
T1 construct: whole, on cells; Intracellular membrane protein, probed in fixed and permeabilised cells (in-cell ELISA), in SDS lysates (immunoblot) or in liposomes (SUVs) made from the cells; On blots two natural splice variants (A and B) are detected; also called endogenous ZnT8; SLC30A8 product
T1 sequence (looked up): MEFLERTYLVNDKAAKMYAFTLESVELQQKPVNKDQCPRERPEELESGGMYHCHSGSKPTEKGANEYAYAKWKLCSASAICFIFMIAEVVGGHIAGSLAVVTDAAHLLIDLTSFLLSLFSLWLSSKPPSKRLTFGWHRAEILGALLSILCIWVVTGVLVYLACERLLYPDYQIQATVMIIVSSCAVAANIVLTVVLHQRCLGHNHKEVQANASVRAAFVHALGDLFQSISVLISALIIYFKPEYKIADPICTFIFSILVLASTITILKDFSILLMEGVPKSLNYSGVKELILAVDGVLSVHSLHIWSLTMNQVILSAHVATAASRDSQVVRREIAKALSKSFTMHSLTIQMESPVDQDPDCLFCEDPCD
Test: in-cell ELISA, 95×10^3 EndoC-βH1 cells against the same number of rat INS-1E cells
Experimental: Next, mAb20 or a rabbit anti-HLA-I antibody (Proteintech, Cat. #15240-1-AP) was 1:600 or 1:60 diluted to Permeabilization/Wash Buffer I plus 0.5% BSA. Cells in each well were incubated with the diluted antibody solution for 2 hr at 37° C., washed once, and then exposed to a HRP-conjugated anti-mouse IgG (H+L) (Invitrogen, Cat. #62-6520) or anti-rabbit IgG (H+L) antibody (Invitrogen, Cat. #62-6120) in a 1:3000 dilution in Permeabilization/Wash Buffer I plus 0.1% BSA. After 1 hr incubation with the secondary antibody at RT, cells were washed three times to remove unbound antibodies before adding SuperSignal ELISA Femto Substrate (ThermoFisher Scientific, Cat. #37075). The HRP reaction was terminated at 5 min by transferring the reaction mixture to a 96-well opaque microplate for chemiluminescence quantification on a FlexStation-3 multi-mode microplate reader.
Assay validation. A ZnT8-specific ELISA was developed to track the endogenous ZnT8 level in EndoC-βH1 cells immobilized to a 96-well plate by paraformaldehyde fixation, followed by immunostaining and horseradish peroxidase (HRP) chemiluminescence. The non-specific background was estimated using rat insulinoma INS-1E and human HEK293 cells as negative controls. […] The signal-to-noise ratio at 95×10^3 cells was 3.9 (Z′ score=0.8) over a background detected from a same number of INS-1E cells (FIG. 1A). […]

B1: anti-ZnT8 monoclonal antibody mAb20 (antibody, mouse IgG1, kappa, V domains shown)
VH: QIQLVQSGPELKKPGETVKISCKASGYIFTNYPMHWVKQAPGKGLKWMGWINTYSGVPTHADDFKGRFAFSLETSANSAFLQINNLKNEDTATYFCTRSRITPTGGYAMDYWGQGTSVTVSS
VL: DVVMTQTPLSLPVSLGDQASISCRSSQSLVHSNGNTYLHWYLQKPGQSPNLLISKVSNRFSGVPERFSGSGSGTDFTLKISRVEAEDLGVYFCSQNTHVPWTFGGGTKLEIKR
notes: Mouse monoclonal antibody; Used free (1:600 of a 1 mg/ml stock), biotinylated, or crosslinked to Dynabeads through NHS-PEG5K-NHS; also called mouse mAb20; biotinylated mAb20
signal-to-noise ratio: 3.9
